Data taken from the DeepSol protein solubility set.

Experiment: soluble on expression in E. coli; label from the status in PepcDB or PDB records

Row | Sequence | soluble on expression in E. coli
1 | MSSDEQKPEVNGYWTSVKNFSSSAATSINNATTSAWNSEFAASTSATVKDFSTSATKSIGEAATSAWNSETASTATSAISEAAKNARSWYDSSSEENEELEPSGHGFRGGIAALSRNASHYVISTVGRSSNILNIFDKTNKSSLGNPRWWIRFDRPHGNVDFHHININKAVTGLKDPHIPLTPTTAKTIGVLGKVAEKANDVAPLLTTAAMIYEAYRVGQEVHKDMNHGTTRNTIKTLAATSGTYSSGSIGAYAGSVIGTSIFPGLGTIFGAVVGGIVGGHFGGHYSHVATENALNHVKWDVVTFVCDGCDEEYTWKKYQEIEGTCCTRFNNKRQDSVDYWFKKLETNHDF | not soluble
2 | MNKIFLTAAALVLGACGFHLKGADGISPPLTYRSWHIEGGQALQFPLETALYQASGRVDDAAGAQMTLRIDSVSQNKETYTVTRAAVINEYLLILTVEAQVLKRGEPVGKPMTVSVRRILDYADNEILGKQEEEETLWAEMRQDVAEQIVRRLTFLKAELEHHHHHH | soluble
3 | MRGSHHHHHHLVPRGSVQVISSYDQFKQVTGGDKVVVIDFWATWCGPCKMIGPVFEKISDTPAGDKVGFYKVDVDEQSQIAQEVGIRAMPTFVFFKNGQKIDTVVGADPSKLQAAITQHSA | soluble
4 | GPGSMWGPNQEVAHPRHDGKSFYLPSTSAAGAAALGASLLPHSNLVCAPLNPHIAREPVDTATGDGDGTVRALLTRFRIENERLRDQVKAHVVQEALLTQRLQELSARNTALHLQDFRKRDNDAVVEKLKKQLEVKEMEVRALQLQVGELNGRISAYEEAISRPDHPQGLSANSMDRVRELICEALSSAGFLTRVANAVEHCHPSTHEVTDCPRSVEECTNHCLQAAMRGNKELPGETAARGHHVSCEELASALREEVLFCETVAVRVAAKLFMERSSADSSAKADRGTGLQHQEESAPPLARPTAECPAEAHELPQSDRRPRRKPAARPTVEDCEVQ | not soluble
5 | MLSAESLKQIDIELAKYPADQRRSAIMGALRIAQTEKGWLAPETIAFVADYIGITPAQAYEVATFYNMYDLEPVGKYKLTVCTNLPCALRGGMATGEYLKQKLGIGYGETTPDGKFTLVEGECMGACGDAPVMLVNNHSMCSFMTEEAIEKKLAELE | not soluble
6 | MGSDKIHHHHHHMRLVVDGFGKYLGIENGLIVVKEKGKALRKVRPEDLKQVLIIGKAAISSDAIKLLLKNRVDVVFLDFNGEILGRLSHPLIGTAKTRREQYLAYGDKRGVHLAKEFIKAKMANQMAILTNLAKARKDSNPEVAESLLKAKKEIDACLNELDGVEAEMIDKVRERLLGIEGKASKHYWDAISLVIPEEYRFNGRRGIEIGSPRYAKDIVNAMLNYGYSILLAECVKAVELAGLDPYAGFLHVDVSGRSSLAIDLMENFRQQVVDRVVLRLISYRQIKPEDCEKRNMVCQLSDNARRLLLASLLERLDSKTQYRGRNLAYSSIILLHARDVVAFLRGERRYEGFVQKW | not soluble
7 | MANDKIVIHGARAHNLKNIDVTIPRDKMVVVTGLSGSGKSSLAFDTLYAEGQRRYVESLSAYARQFLGQMDKPDVDSIDGLSPAISIDQKTTSKNPRSTVGTVTEINDYLRLLFARVGHPICPNDHIEITSQSVEQMVDKVLELPERTKIQILAPVVVKKKGQHKKVFEMIQREGYVRMRVDGETYDVSEAPELEKNKKHDIAIVIDRIVVKEGIRSRLFDSFEAALRLAEGYAIVDVIGQEEMLFSEHYACPYCGFTVGELEPRLFSFNAPFGACPDCDGLGVKLEVDKDLVIPDPTKTLREGAIVPWNPISSQYYPQMLEQAATSFGIDMDTPFEELPADQQEIILNGSGEKNFHFHYENDFGGVRDVEVPFEGILKNIKRRYHETNSDFTRDQMRLYMTELTCRSCQGYRLNPQALAVKINGTHIGEVSELAIKNAVQFFEGVSLSEQETTIARPILKEVEDRLTFLKNVGLDYLTLSRAAGTLSGGEAQRIRLATQIGSNLSGVLYILDEPSIGLHQRDNDRLIDSLKKMRDLGNTLIVVEHDEDTMMASDYLIDVGPGAGHLGGEIVAAGTPEEVAKNPHSLTGQYLSGKKVIPVPKERRKGNGKAIKVTGASENNLKNVSVEFPLGEFVAVTGVSGSGKSTLVNQILKKALAQKLNRNSNKPGKHKSITGYEAIEKIVDIDQSPIGRTPRSNPATYTSVFDDIRDLFAQTNEAKVRGYKKGRFSFNVKGGRCEACRGDGIIKIEMHFLPDVYVPCEVCHGKRYNSETLEVHYKGKNISDILDMTVEDAVEFFKHIPKIHRKLQTIVDVGLGYVTLGQPATTLSGGEAQRMKLASELHKNSNGKNFYILDEPTTGLHTDDIARLLLVLERLVEAGNTVLVIEHNLDVIKSADHVIDLGPEGGDGGGTIVATGTPEEVAKVKDSYTGYYLKRVLK | not soluble
8 | MSLMYPLVLDLAADGIPVTVTCRVLGFSTQAFYKWRKAPLTQRDWDDAHLINAARDIHADDPAFGYRFIADELPGRGITAGENRVARLCSQERIWSIFAKKRGLNRRSGPPVHDDLVERQFSAQAANQVWLTDITEHRTNEGKLYLCAIKDVYSNRIVGYSMDSRMKSSLAVAALDHAVALRSPVATIVHSDRGSQFRSRKFVRALSRNGLQGSMGRVGACGDNAAMESFFALLQRNVLDRKRWSTRAELRLAIVTWIERTYHRRRRQRALGRLTPIEFELLRTSVATAAEGHHHHHH | not soluble
9 | MKLMFASDIHGSLPATERVLERFAQSGARWLVILGDVLNHGPRNALPEGYAPAQVAERLNAVATQIIAVRGNCDSEVDQMLLHFPITAPWQQILTQERRLFLTHGHLFGPTNLPALHTGDVLVYGHTHLPVAQQQEGLYHFNPGSVSIPKGGYAASYGILDDNVLSVIALNDQSIIAQVAINS | not soluble
10 | MGSDKIHHHHHHMFDWEDLRHFSAFSSAGSLSAAAKTLGVDHATVARRIASLEASLQLKLVDRRPRAYALTHEGQRVAELAEQMAMSSFALEHFASAGQQTVEGEVVLSAPPALLGSIIARRLGELYQRYPQLRLKLVGSKSKASLVRREADISIALARPTEPTLVVSLLGHLDYRLYASPGYLASATVRRYIGYDESQARSPQQQWLNLQAGQQPFALHSNDLRIQAQACAGGIGIACLPAFMAQEHGLKEAGSAQQTMSIEIWLAVHEDVRATPRIKAVTDFLQQQVRPLLRL | not soluble
11 | MYLTIKSIMLLRKYLLVTESQVSKCGFHIVKKKGDVLYPKRTKYSKYRKGRCSRGCKPDGTKLGFGRYGTKSCKAGRLSYRAIEAARRAIIGHFHRAMSGQFRRNGKIWVRVFADLPITGKPTEVRMGRGKGNPTGWIARVSTGQIPFEMDGVSLANARQAATLAAHKPCSSTKFVQWSLEHHHHHH | not soluble
12 | MGAGPSDHRAITLEGTTVMVPVYNSTAQQSPYQLTTTADGGVALHHQGELTTTLETPPEPHFYNLQTAESIPYKAIALLHGKDVLATTLQQTCIRFRDRSESCQFCAIEQSLTSGQTIVRKTPEQVAEVVAAAVRLDGVRQLVMTTGTPNSRDRGARLMAETAAAVKAVVDIPIQAQCEPPDDPVWFSRMKAAGVNSLGMHLEVVEPEVRRRILPGKSELTLEHYYRAFEQAVAVFGRGEVSTYLLAGLGDSADSLIDCSRRLIAIGVYPFIVPFVPIAGTPLERHPAPTTAFMLQIYEAVGALLHDSDLRSAAMSAGLEHHHHHH | not soluble
13 | LIGDKNTTFVEKLNSLAADHQLPQIGFSTSSEPEWQFVKDLTEVDPEHVVKSYNRQAKYHLNKNKQFCIKLRKIGRDELPAFKRITQQTADRLHYHDKSLDFYETLFDTYGKKAKFIFAEINFKEYSESIEKDLNDIQKKLTEIAGADYHNISDLSDFSASAKRHLSEGIKTETALQKRLQEAKKMHQEAKHDIVLVSVALFVIENQEVVYLYSGSDEKYEHLFAPYEIQDTMITEAVKERIPLYNFYGVSGKFDGSDGVLGFKTHFNGYTREMVGSFDFPVQKTKYYFYRLFKKILHRQ | not soluble
14 | MPPKKTQKSGLLQFFAKQQQEKYQNSSKNEETTEHDDSCQILFEKQVAGPSKVSKPIGFPTTPKNTTKWAETLQKSSEKAGRDWLNPFPIRVSSAKKEIEKNSKTELLAKGFDDIHGNGIFYPINEPIRNFELNLLKCLSSSNCCVALPSSSPSTPGRICAMTVFNFLKWFPRCRVLLVSSSDSWISSLRQLGLESQTTKLTTVTQFKNLKTEAGKILVCTTPQCALKVVESTGGREFLEEIRLVLMELKPNECCSKYKPILNALTVKETFFRCSVLTTSTSNASRRTASITKRQQMITNLQLSDWIEQTEADFAFRSANIPAGVEVKTWKSEDNSAKHAEITGKFEKYCEKTIDDLARQCIVSSKSVKKLIWTCWKTLKQQSKLPEIEKKKLEISEFLTCTYKLLIIDGVVAARNFVKKHSEIPHIKEHAEKILEPTIFGGFSEFPAKFQQLSDSIEAFLKMDNHVLGVILCRDSDQAIEIQNYLELQLTTRCTCVRIIEEGTHPGRNLWNIQRISTVFIDRKSPKIVILPVKIRDFIGFSDGLPLSELTFIASISRDSLFNFRRFGGAHLLIINDPLEKLRNEDGRLLVDDGKFVQNNSKNAPKMGAVERYDFKFEPSRLRIDATHLPIQFFYPRDVGVTFDETAGISQLGKTHIEMTSKEHTELFKRLQNPDFSRFQRRKRVFWVLEDLEHPNENKSIPIEEMDETQLCWNQDIQYLGEIKSSKLSERLTRYMKDEPVEWIINEKRRFEYINEITSTDRLVHLDRLLRNLDAHFQVLSSC | not soluble
15 | KYVDGFLIPIAKDKVNKYREIAQKSSQIWKDLGALEYYECIGDDLDIEELVSFKKVVNASEEETVIFSWIVYESKEQRDKVNEAVMNDPRMKEMMETSEYDLFDYRRMSYGGFKTLVSL | not soluble
16 | MAHHHHHHMIARDPPQEGRLPDPSRLPYDDERFAEMLLEMEVNGVIDETWQDAKKARMEDVKEIANILSSLKVRDLCCVDVSEKTSNFDYMMFGTCEGARHIHLAAWAVQDADKVHRISKIKRQQTDELWEVVPVGRIVVNLMVESFREEMTLERKWAVTRSMDPLAAANAPISEGRQVKAHGLWTLTLNLQDLEDFEVDYCKDILMRQM | soluble
17 | MEDRFTTRRRANLESIAQRLLEISQKTEEDEANEVGEDDQHPKNVLNILNTITKEGLEKIVNDIIANGTIIDEMFVVLQRFSEKPALSNPIQRPFYSNLDDNVPSFLRNLQKWRLRDELTKSIEQEEKLKAELKHANDQINMIVEHNKLELDALNKINLEAKAQEKIQEEIIQRCMKRVEDLESILETKEQKLNDFEEREYETTCQLTMKHSLELAEKDQKILELEKYIRNNENQDVVALTRELERLRSQATKDEPSTDDSTIKISMAQHRLELEAQAKMIKTLEAELSKRQEINAEQIERLIEERNSEIKNLIREQSKEIHEKNVKIAKFEIKDYANIFRQISKNIFTNKEAPGPSGRPKKRRMVDDPEDLFHNYEDLDDAKFLELAKIIETTKKDVTTLINTEGPSEDVSGNFMEAKKIHGALAQLKEKDQTVSDLKQKTNQNNKRVDQEDPIEEYEYDYNDESDGESVKSETSSWDQIDDIF | not soluble
18 | MDLVKDVKRELSFSELKGKRVSIDGYNALYQFLAAIRQPDGTPLMDSQGRVTSHLSGLFYRTINILEEGVIPIYVFDGKPPEQKSEELERRRKAKEEAERKLERAKSEGKIEELRKYSQAILRLSNIMVEESKKLLRAMGIPIVQAPSEGEAEAAYLNKLGLSWAAASQDYDAILFGAKRLVRNLTITGKRKLPNKDVYVEIKPELIETEILLKKLGITREQLIDIGILIGTDYNPDGIRGIGPERALKIIKKYGKIEKAMEYGEISKKDINFNIDEIRGLFLNPQVVKPEEALDLNEPNGEDIINILVYEHNFSEERVKNGIERLTKAIKEAKGASRQTGLDRWF | soluble
